Positions count from the first letter of the chain named. In names and notes the source's numbering stands. Where two headings read alike, the source gives them in different places.
Columns and labels:
[1] = target: T1, EDIII-DV4 (E protein domain III of dengue virus serotype DV-4) (dengue virus serotype DV-4, UniProt P09866 572-679); test: affinity for EDIII, table of FIG. 4; method not stated
T1 construct: also called DENV-4

[2] = target: T2, EDIII-DV2 (E protein domain III of dengue virus serotype DV-2) (dengue virus serotype DV-2, UniProt P14337 573-677)
T2 construct: also called DENV-2; EDIII of DV-2

[3] = target: T3, EDIII-DV3 (E protein domain III of dengue virus serotype DV-3) (dengue virus serotype DV-3, UniProt P27915 571-678)
T3 construct: also called DENV-3; EDIII of DV-3

[4] = target: T4, EDIII-DV1 (E protein domain III of dengue virus serotype DV-1) (dengue virus serotype DV-1, UniProt P17763 573-680)
T4 construct: also called DENV-1; EDIII of DV-1
T4 chain: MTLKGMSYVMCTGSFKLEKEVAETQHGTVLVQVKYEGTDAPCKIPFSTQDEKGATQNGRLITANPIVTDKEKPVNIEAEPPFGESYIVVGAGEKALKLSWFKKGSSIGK

[5] = target: T1, EDIII-DV4 (E protein domain III of …)
[6] = target: T1, EDIII-DV4 (E protein domain III of …); remark: listed apart in the source
[7] = target: T1, EDIII-DV4 (E protein domain III of …); test: affinity for EDIII-DV-4, tables of FIG. 5; method not stated
[8] = target: T1, EDIII-DV4 (E protein domain III of …); remark: listed apart in the source
[9] = target: T4, EDIII-DV1 (E protein domain III of …); test: SPR (FIG. 9), by context
[10] = target: T5, New Caledonia/2009 (serotype IV EDIII); test: Kd table, method not stated; Ag DENV-4 NC
T5 construct: also called ED3-DV4/NewCal09; DENV-4 NC
T5 E protein domain III (EDIII): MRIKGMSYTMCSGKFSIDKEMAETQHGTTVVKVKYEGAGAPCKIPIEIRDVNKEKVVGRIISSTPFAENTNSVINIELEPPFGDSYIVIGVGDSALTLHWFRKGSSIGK

[11] = target: T6, Singapore/2009 (serotype III EDIII)
T6 construct: also called ED3-DV3/Sing09; DENV-3 Sing
T6 E protein domain III (EDIII): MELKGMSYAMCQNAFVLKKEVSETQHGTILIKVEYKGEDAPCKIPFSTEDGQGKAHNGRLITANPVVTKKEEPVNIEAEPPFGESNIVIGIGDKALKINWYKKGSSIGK

[12] = target: T7, Philippines/1956 (H87)* (serotype III EDIII) (Dengue virus 3)
T7 construct: isolated EDIII protein

[13] = target: T1, EDIII-DV4 (E protein domain III of …); test: competition ELISA; column 'EDIII-DV4'
[14] = target: T8, New Guinea/1944 (NGC)* (serotype II EDIII) (Dengue virus 2); test: Kd table, method not stated; Ag DENV-2 NGC
T8 construct: isolated EDIII protein; also called EDIII of DENV-2 NGC

[15] = target: T9, Nicaragua/2010 (serotype III EDIII)
T9 construct: also called ED3-DV3/Nicaragua10; DENV-3 Nic
T9 E protein domain III (EDIII): T6 E protein domain III (EDIII) with Q12T, A14T, A40V, K94N

[16] = target: ED3-DV4/H241/Phil56 (EDIII of DENV-4 strain H241) (dengue virus serotype DENV-4, strain …, UniProt Q58HT7 572-679); test: Kd table, method not stated; Ag DENV-4 Phil
[17] = target: T3, EDIII-DV3 (E protein domain III of …); remark: listed apart in the source
[18] = target: T1, EDIII-DV4 (E protein domain III of …); remark: listed apart in the source
[19] = target: T10, Singapore/2008 (serotype II EDIII); test: Kd table, method not stated; Ag DENV-2 Sing
T10 construct: also called ED3-DV2/Sing08; DENV-2 Sing

[20] = target: T1, EDIII-DV4 (E protein domain III of …); remark: listed apart in the source
[21] = target: T1, EDIII-DV4 (E protein domain III of …); test: competition ELISA; column 'EDIII-DV4 [1/7]'
[22] = target: T11, Peru/1995 (serotype II EDIII); test: Kd table, method not stated; Ag DENV-2 Peru
T11 construct: also called ED3-DV2/Peru95; DENV-2 Peru

[23] = target: T12, Singapore/2010 (serotype IV EDIII); test: Kd table, method not stated; Ag DENV-4 Sing
T12 construct: also called ED3-DV4/Sing10; DENV-4 Sing
T12 E protein domain III (EDIII): T5 E protein domain III (EDIII) with I44V, I74T

[24] = target: T2, EDIII-DV2 (E protein domain III of …); test: competition ELISA
[25] = target: T3, EDIII-DV3 (E protein domain III of …); test: competition ELISA
[26] = target: T4, EDIII-DV1 (E protein domain III of …); test: competition ELISA
[27] = target: T13, Mexico/1977 (BC287/97)* (serotype IV EDIII) (Dengue virus 4); test: Kd table, method not stated; Ag DENV-4 BC2
T13 construct: isolated EDIII protein; also called EDIII of DENV-4 Mexico/1997 (BC287/97); DENV-4 BC2

[28] = target: dengue virus serotype DV-4 (live virus, representative strain not named; E protein) (dengue virus serotype DV-4); test: cell-based or functional assay
[29] = target: T4, EDIII-DV1 (E protein domain III of …)
[30] = target: T3, EDIII-DV3 (E protein domain III of …); remark: listed apart in the source

B1: antibody B48+A98V (antibody, V domains shown)
VH: QVQLVQSGAEVKKPGASVKVSCKAGFNIKDTYMSWVRQAPEQGLEWMGRIDPENGDTKYDPKLQGRVTMTADTSTNTAYMELRSLRSDDTAVYYCVRGWEGFAYWGQGTLVTVSS
VL: DIVMTQSPASLAVSLGERATISCRASENVDKYGNSFMHWYQQKPGQPPKLLIYRASELQWGVPDRFSGSGSGTDFTLTISSLQAEDVAVYYCQRSNEVPWTFGQGTKLEIK
In the case of B1, the “fold improvement in binding relative to antibody B48” value [1] is reported as roughly 5 fold, the Kd [2] is reported as less than 0.1 nM and the Kd [3] is reported as 5.06 nM. It also gave a Kd [4] of less than 0.1 nM and a Kd [5] of 9.26 nM.

B2: antibody D48 (antibody, V domains shown)
VH: VKLLEQSGAEVKKPGASVKVSCKASGFNIKDVYMSWVRQAPEQGLEWMGRIDPENGDTKYDPKLQGRVTMTADTSTNTAYMELRSLRSDDTAVYYCARGWEGFAYWGQGTLVTVSS
VL: B1 VL
In the case of B2, the Kd [6] is reported as 7.49 nM and the “fold improvement in affinity relative to an antibody with a fully humanized N-terminus” value [7] is reported as roughly 2 fold.

B3: antibody D98 (antibody, V domains shown)
VH: B2 VH with V1Q, K2V, L3Q, E5V, G26A
VL: B1 VL
For B3, the Kd [8] was 16.9 nM.

B4: antibody C88 (antibody, V domains shown)
VH: B2 VH with V1Q, K2V, L3Q, E5V
VL: B1 VL
For B4, the “fold greater affinity than C98” value [9] was roughly 20 fold, the Kd [10] was 11.3 nM and the Kd [11] was 1 nM. It also gave a Kd [12] of 1.5 nM, a Kd [6] of 13 nM and a Kd [13] of 15.4 nM. It also gave a Kd [14] of less than 0.1 nM, a Kd [15] of 3.2 nM and a Kd [16] of 234 nM. For the same binder, the Kd [17] was 0.97 nM, the Kd [18] was 23.8 nM and the Kd [19] was less than 0.1 nM. For the same binder, the Kd [20] was 13 nM, the Kd [21] was 13 nM and the Kd [22] was 0.38 nM. It also gave a Kd [23] of 15 nM, a Kd [24] of less than 0.1 nM and a Kd [25] of 1.06 nM. The Kd [26] was less than 0.1 nM and the Kd [27] was 10.6 nM.

B5: antibody D118 (antibody, V domains shown)
VH: B2 VH with V1Q, K2V, L3Q, E5V, F27W
VL: B1 VL
B5 was tested, and the Kd [13] was 24.4 nM, the Kd [20] was 12.6 nM and the Kd [21] was 12.6 nM. It also gave a Kd [25] of 9.07 nM and a Kd [26] of less than 0.1 nM.

B6: antibody B11 (antibody, V domains shown)
VH: VKLLEQSGAELVKPGASVRLSCTAGFNIKDTYMSWVKQRPEQGLEWIGRIDPENGDTKYDPKFQGKATITADTSSNTAYLHLSSLTSGDTAVYYCSRGWEGFAYWGQGTLVTVSA
VL: ELVMTQTPASLAVSLGQRATISCRASENVDKYGNSFMHWYQQKAGQPPKLLIYRASELQWGIPARFSGSGSRTDFTLTINPVEADDVATYFCQRSNEVPWTFGGGTKLEIK
For B6, the “IC50, focus reduction neutralization test (FRNT), DV-4” value [28] was 0.5 to 1.4 µg/mL, the Kd [3] was 2.98 nM and the Kd [4] was less than 0.1 nM.

B7: mouse mAb 4E11 (antibody, V domains shown)
VH: VKLLEQSGAELVKPGASVRLSCTASGFNIKDTYMSWVKQRPEQGLEWIGRIDPANGDTKYDPKFQGKATITADTSSNTAYLHLSSLTSGDTAVYYCSRGWEGFAYWGQGTLVTVSA
VL: B6 VL with K31R, E57N, Q59E, W60S
notes: also called antibody 4E11
With B7 the Kd [12] was 21.8 nM, the Kd [29] was 0.33 nM and the Kd [14] was 5.2 nM. For the same binder, the Kd [30] was 21.8 nM and the Kd [27] was 40800 nM.
